The target in the experiment is hyperactive SB transposase mutant HSB5. The experiment in a line: cell-based or functional assay.

For the substance E2C/SB-5 fusion protein, the integration frequency against cells containing the E2C/SB-5 fusion protein without the limiting amount of HSB5 (142 colonies) was found to be 4 fold and the integration frequency against cells expressing the same limiting amount of HSB5 transposase alone (58 colonies) stood at 10 fold.
